Assay results as given in PMC4265155, “A highly charged region in the middle domain of plant endoplasmic reticulum (ER)-localized heat-shock protein 90 is required for resistance to tunicamycin or high calcium-induced ER stresses” (Journal of Experimental Botany, 2014).

B1: HSP90.7 (AtHSP90.7; mature form R73–L823) (Arabidopsis thaliana) (protein)
chain: RSNAEKFEFQAEVSRLMDIIINSLYSNKDIFLRELISNASDALDKIRFLALTDKDVLGEGDTAKLEIQIKLDKAKKILSIRDRGIGMTKEDLIKNLGTIAKSGTSAFVEKMQSSGDLNLIGQFGVGFYSAYLVADYIEVISKHNDDSQYVWESKANGKFAVSEDTWNEPLGRGTEIRLHLRDEAGEYLEESKLKELVKRYSEFINFPISLWASKEVETEVPVEEDESADEETETTSTEEEKEEDAEEEDGEKKQKTKKVKETVYEWELLNDVKAIWLRSPKEVTEEEYTKFYHSLSKDFTDEKPMAWSHFNAEGDVEFKAVLYVPPKAPHDLYESYYNSNKANLKLYVRRVFISDEFDELLPKYLSFLKGLVDSDTLPLNVSREMLQQHSSLKTIKKKLIRKALDMIRKLAEEDPDEIHDDEKKDVEKSGENDEKKGQYTKFWNEFGKSVKLGIIEDAANRNRLAKLLRFETTKSDGKLTSLDQYIKRMKKSQKDIFYITGSSKEQLEKSPFLERLIKKGYEVIFFTDPVDEYLMQYLMDYEDKKFQNVSKEGLKVGKDSKDKELKEAFKELTKWWKGNLASENVDDVKISNRLADTPCVVVTSKFGWSANMERIMQSQTLSDANKQAYMRGKRVLEINPRHPIIKELKDRIASDPEDESVKETAQLMYQTALIESGFILTDPKDFAARIYNSVKSGLNISPDAVADEEIEAAEEPETSEATETKSDDLAGGLNIEAEPVEQQEENTKDEL
notes: predicted mature form R73-L823, signal peptide removed, vector p11, E. coli BL21(DE3)-pRIL, His6-tag cut with TEV protease, size-exclusion purified
B2: HSP90.7 (AtHSP90.7; mature form R73–L823) (Arabidopsis thaliana; DEL488-509) (protein)
chain: RSNAEKFEFQAEVSRLMDIIINSLYSNKDIFLRELISNASDALDKIRFLALTDKDVLGEGDTAKLEIQIKLDKAKKILSIRDRGIGMTKEDLIKNLGTIAKSGTSAFVEKMQSSGDLNLIGQFGVGFYSAYLVADYIEVISKHNDDSQYVWESKANGKFAVSEDTWNEPLGRGTEIRLHLRDEAGEYLEESKLKELVKRYSEFINFPISLWASKEVETEVPVEEDESADEETETTSTEEEKEEDAEEEDGEKKQKTKKVKETVYEWELLNDVKAIWLRSPKEVTEEEYTKFYHSLSKDFTDEKPMAWSHFNAEGDVEFKAVLYVPPKAPHDLYESYYNSNKANLKLYVRRVFISDEFDELLPKYLSFLKGLVDSDTLPLNVSREMLQQHSSLKTIKKKLIRKALDMIRKLAEEDPQYTKFWNEFGKSVKLGIIEDAANRNRLAKLLRFETTKSDGKLTSLDQYIKRMKKSQKDIFYITGSSKEQLEKSPFLERLIKKGYEVIFFTDPVDEYLMQYLMDYEDKKFQNVSKEGLKVGKDSKDKELKEAFKELTKWWKGNLASENVDDVKISNRLADTPCVVVTSKFGWSANMERIMQSQTLSDANKQAYMRGKRVLEINPRHPIIKELKDRIASDPEDESVKETAQLMYQTALIESGFILTDPKDFAARIYNSVKSGLNISPDAVADEEIEAAEEPETSEATETKSDDLAGGLNIEAEPVEQQEENTKDEL
notes: as for B1

Substrate: Nc1ncnc2c1ncn2[C@@H]1O[C@H](COP(=O)(O)OP(=O)(O)OP(=O)(O)O)[C@@H](O)[C@H]1O
Assay: NADH-coupled ATPase assay (pyruvate kinase / lactate dehydrogenase)
Type: biochemical, Arabidopsis thaliana
Conditions: geldanamycin-sensitive activity, 25 mM HEPES pH 7.5, 5 mM MgCl2, 400 mM KCl, 0.03% Tween 20, 10% glycerol
Source text: NADH-coupled ATPase assay (pyruvate kinase / lactate dehydrogenase) on HSP90.7 (AtHSP90.7; mature form R73–L823)

[1] = HSP90.7^Δ22 (D488–G509 deleted by SpeI cleavage and religation; a SpeI-site scar may remain)

Protein | Km | kcat | kcat/Km | Km [1] | kcat [1] | kcat/Km [1]
B1 | 770 ± 180 µM | 0.0377 ± 0.00283 s⁻¹ | 49 ± 15.2 M⁻¹ s⁻¹ | – | – | –
B2 | – | – | – | 440 ± 110 µM | 0.039 ± 0.0025 s⁻¹ | 89 ± 27.8 M⁻¹ s⁻¹
